We go through 31 molecules from patent US20070117770, “Human ribosomal DNA (rDNA) and ribosomal RNA (rRNA) nucleic acids and uses thereof” (Cylene Pharmaceuticals, Inc., published 2007).

Data set [1] deals with T1, Nucleolin (MBP fusion, lacking N-terminal acidic stretches domain) (Homo sapiens, UniProt P19338 P19338:284-710). Nature of the data set: filter; Bmax 50%; 60 mM KCl, 1 mM MgCl2. The note with it: label: 32P. As to the method: (§1) The assay also was conducted in a filter-binding format. In such forms of the assay, 0.2 nM of ³²P-labeled quadruplexes were incubated in 50 uL of the binding buffer (12.5 mM Tris-HCl, pH 7.6, 60 mM KCl, 1 mM MgCl2, 0.1 mM EDTA, 5% glycerol, 0.1 mg/mL BSA) for 10 min at 85 C and then for 10 min on ice and mixed with another 50 uL of binding buffer containing increasing amounts of recombinant protein Nucleolin. The protein-quadruplex mixtures were incubated for 30 min at ambient temperature and filtered through mixed cellulose ester membrane filters (Millipore) with gentle suction. The filters were washed twice with […] of binding buffer, dried and OptiPhase ‘SuperMix’ scintillation cocktail (Perkin Elmer) was added to the wells. Radioactivity was assayed with MicroBeta scintillation counter (Perkin Elmer). Binding curves were constructed and apparent Kd's and Bmax's for the complexes were calculated using the GraphPad Prizm software program (GraphPad Software). […]

For data set [2], the target named is T1, Nucleolin (MBP fusion, lacking …). Nature of the data set: filter; Bmax 43%; 60 mM KCl, 1 mM MgCl2. The note with it: label: 32P; G4 motif, CD not determined. The protocol:
as §1

The target is the same in data set [3]. Nature of the data set: filter; Bmax 55%; 60 mM KCl, 1 mM MgCl2. The note with it: label: 32P; G4 motif, CD not determined. As to the method:
as §1

The target is the same in data set [4]. Nature of the data set: filter; apparent Kd; Bmax 41%; 12.5 mM Tris-HCl pH 7.6, 60 mM KCl, 1 mM MgCl2, ambient temperature. The note with it: label: 32P; G4 mixed. The protocol:
as §1

The target is the same in data set [5]. The data set is described as follows: filter; Bmax 65%; 60 mM KCl, 1 mM MgCl2. The conditions noted are these: label: 32P; G4 motif, CD not determined. As to the method:
as §1

Data set [6] shares this target. The data set is described as follows: filter; Bmax 26%; 60 mM KCl, 1 mM MgCl2. The conditions noted are these: label: 32P; G4 mixed. The protocol: as §1
Data set [7] has the same target. Nature of the data set: filter; Bmax 35%; 60 mM KCl, 1 mM MgCl2. The note with it: label: 32P; G4 motif, CD not determined. As to the method: as §1
For data set [8] the target is unchanged. The data set is described as follows: filter; Bmax 66%; 60 mM KCl, 1 mM MgCl2. The conditions noted are these: label: 32P; G4 mixed. The protocol: as §1
The target is the same in data set [9]. The data set is described as follows: filter; 60 mM KCl, 1 mM MgCl2. The note with it: label: 32P. As to the method: The assay also was conducted in a filter-binding format. In such forms of the assay, 0.2 nM of ³²P-labeled quadruplexes were incubated in 50 uL of the binding buffer (12.5 mM Tris-HCl, pH 7.6, 60 mM KCl, 1 mM MgCl2, 0.1 mM EDTA, 5% glycerol, 0.1 mg/mL BSA) for 10 min at 85 C and then for 10 min on ice and mixed with another 50 uL of binding buffer containing increasing amounts of recombinant protein Nucleolin. The protein-quadruplex mixtures were incubated for 30 min at ambient temperature and filtered through mixed cellulose ester membrane filters (Millipore) with gentle suction. The filters were washed twice with […] of binding buffer, dried and OptiPhase ‘SuperMix’ scintillation cocktail (Perkin Elmer) was added to the wells. Radioactivity was assayed with MicroBeta scintillation counter (Perkin Elmer). Binding curves were constructed and apparent Kd's and Bmax's for the complexes were calculated using the GraphPad Prizm software program (GraphPad Software). In the following table, the nucleic acid ligand is designated in the first column using the nomenclature described herein; the second column provides the nucleotide sequence of the nucleic acid ligand; the third column is the conformation of the ligand as determined by circular dichroism (M is mixed, P is parallel, A is antiparallel, C is complex, SS is single-stranded and ND is not determined); the fourth column is the dissociation constant determined by the filter binding assay of nucleolin protein and the nucleic acid ligand; the fifth column is a Bmax constant determined by the filter binding assay, which is the percent of active nucleic acid ligand in each assay; and the sixth column presents the concentration of Compound A-1 required to dissociate half of the complexed nucleic acid ligand and nucleolin protein, as determined by the EMSA assay described above.

For data set [10] the target is unchanged. The data set is described as follows: filter; Bmax 84%; 60 mM KCl, 1 mM MgCl2. The note with it: label: 32P; G4 mixed. The protocol: as §1
For data set [11] the target is unchanged. Nature of the data set: filter; Bmax 33%; 60 mM KCl, 1 mM MgCl2. The note with it: label: 32P; G4 parallel. As to the method:
as §1

The target is the same in data set [12]. Nature of the data set: filter; Bmax 82%; 60 mM KCl, 1 mM MgCl2. The note with it: label: 32P; G4 motif, CD not determined. As to the method: as §1
For data set [13] the target is unchanged. The data set is described as follows: filter; Bmax 53%; 60 mM KCl, 1 mM MgCl2. The note with it: label: 32P; G4 mixed. As to the method: as §1
The target is the same in data set [14]. The data set is described as follows: filter; Bmax 49%; 60 mM KCl, 1 mM MgCl2. The note with it: label: 32P; G4 motif, CD not determined. As to the method:
as §1

Data set [15] has the same target. The data set is described as follows: filter; Bmax 20%; 60 mM KCl, 1 mM MgCl2. The conditions noted are these: label: 32P; G4 motif, CD not determined. As to the method:
as §1

For data set [16] the target is unchanged. The data set is described as follows: filter; Bmax 32%; 60 mM KCl, 1 mM MgCl2. The note with it: label: 32P. The protocol: as §1
Data set [17] has the same target. Nature of the data set: filter; Bmax 47%; 60 mM KCl, 1 mM MgCl2. The note with it: label: 32P. The protocol:
as §1

The target is the same in data set [18]. The data set is described as follows: filter; Bmax 16%; 60 mM KCl, 1 mM MgCl2. The conditions noted are these: label: 32P; G4 motif, CD not determined. As to the method:
as §1

Data set [19] shares this target. The data set is described as follows: filter; Bmax 100%; sequence taken from Example 6 table. The note with it: label: 32P; G4 complex. As to the method:
as §1

Data set [20] has the same target. Nature of the data set: filter; Bmax 52%; 60 mM KCl, 1 mM MgCl2. The note with it: label: 32P; G4 motif, CD not determined. The protocol: as §1
The target is the same in data set [21]. Nature of the data set: filter; Bmax 31%; 60 mM KCl, 1 mM MgCl2. The conditions noted are these: label: 32P; G4 motif, CD not determined. The protocol:
as §1

The target is the same in data set [22]. Nature of the data set: filter; Bmax 21%; 60 mM KCl, 1 mM MgCl2. The note with it: label: 32P; G4 motif, CD not determined. As to the method: as §1
The target is the same in data set [23]. The data set is described as follows: filter; Bmax 37%; 60 mM KCl, 1 mM MgCl2. The conditions noted are these: label: 32P; G4 parallel. As to the method: as §1

T1 sequence (P19338 284-710, one chain of several): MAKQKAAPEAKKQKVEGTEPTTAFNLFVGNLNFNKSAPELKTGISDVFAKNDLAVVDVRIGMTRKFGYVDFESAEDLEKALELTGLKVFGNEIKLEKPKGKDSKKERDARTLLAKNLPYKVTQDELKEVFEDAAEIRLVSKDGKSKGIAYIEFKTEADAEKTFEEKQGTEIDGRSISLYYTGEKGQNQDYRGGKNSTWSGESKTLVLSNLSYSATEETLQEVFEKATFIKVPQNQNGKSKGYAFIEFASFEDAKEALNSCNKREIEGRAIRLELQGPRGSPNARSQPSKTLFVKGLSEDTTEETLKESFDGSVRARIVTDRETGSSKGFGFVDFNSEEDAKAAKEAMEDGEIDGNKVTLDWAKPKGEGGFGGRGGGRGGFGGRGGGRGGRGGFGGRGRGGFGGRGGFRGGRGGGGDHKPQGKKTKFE

The molecule GGGCCCGCGGGGGGAGGGGGAAGGGGCGGG (structured_DNA) [6914T] displayed a Kd in [1] (G4 mixed) of 0.8 nM. On to AGGGGCGGGGGCGCGGGGAGGAGGGGTGGG (structured_DNA) [9024T], for which, in data set [2], the Kd was determined as 0.3 nM.

B1: 2160T (structured_DNA)
DNA: AGGGCGGCGGGCGGGGAAGAGGGCACAGACGGGCGAGGGCCGGGGACCGCGAGGGCAAGGGCACCCGGG
In the case of B1, in [3], the Kd was found to be 0.7 nM. In the case of GGGTGGACGGGGGGGCCTGGTGGGG (structured_DNA) [1196NT], in data set [4], the Kd worked out at 4.2 nM.

In data set [5], AGGGGCTCCGGGGGCGGGGAGCGGGGCGTGGGCGGGAGGAGGGG (structured_DNA) [10137T] showed a Kd of 0.4 nM. GGGTCGGGGGCGGTGGTGGGCCCGCGGGGG (structured_DNA) [6183NT]: the Kd in [6] is 2.2 nM. In data set [7], AGGGGAGGGGGGAGGACGGGGAGCGGGGG (structured_DNA) [10985T] came in with a Kd of 0.2 nM. Turning to GGGTCGGGGGGTGGGGCCCGGGCCGGGG (structured_DNA) [2957NT], the Kd in data set [8] worked out at 2.7 nM. GGGCCGGGACGGGGTCCGGGG (structured_DNA) [13173NT] returned a Kd in data set [9] (G4 mixed) of over 30 nM.

B2: 8440T (structured_DNA)
DNA: AGGGGCGGCGGGGGAAGGGAGGGCGGGTGGAGGGGTCGGGAGGAACGGGGGGCGGG
In [7], B2 gave a Kd of 0.3 nM. In turn, AGGGAGGGAGACGGGGGGG (structured_DNA) [5701NT] came in with a Kd in data set [10] of 3.2 nM. Turning to TGGGGAGGGTGGGGAGGGTGGGGAATT (structured_DNA) [Myc27], the Kd in [11] was determined as 4.4 nM.

B3: 10885T (structured_DNA)
DNA: AGGGTGGGGCGGGGGAGGGCCGCGAGGGGGGTGCCCCGGGCGTGGGGGGGG
With B3, in data set [12], the Kd amounted to 0.2 nM. In [13], GGGAGGGGCACGGGCCGGGGGCGGGACGGG (structured_DNA) [7733T] registered a Kd of 0.8 nM. As for AGGGAGGACGCGGGGCCGGGGGGCGGAGACGGG (structured_DNA) [8716T], the Kd in data set [14] was determined as 3.1 nM. AGGGACGGGGACCGGCGGGCCACGGGG (structured_DNA) [13236T]: in data set [9] (G4 motif, CD not determined), the Kd was over 30 nM.

For the molecule AGGGCGGACGGGAGGGAGCGAGCGGGCGCGGGGG (structured_DNA) [3500T], in data set [15], the Kd came to 1.1 nM.

Molecule AGGGACGCCTGGGGAAGGGAGGGGG (structured_DNA) [1310T] had a Kd in data set [1] (G4 motif, CD not determined) of 4.4 nM. The molecule AGGGGGGAACGGGGGGCGGACGGGGCCGGGGGGGTAGGGCGGGGGG (structured_DNA) [11345T] showed a Kd in data set [16] (G4 motif, CD not determined) of 0.3 nM. In data set [17] (G4 mixed), GGGGGCGGGAACCCCCGGGCGCCTGTGGG (structured_DNA) [6374NT] registered a Kd of 5.5 nM. For the molecule AGGGCGGGCGGCGGGGCGGG (structured_DNA) [7499T], the Kd in data set [18] came to 1.1 nM.

B4: 8762NT (structured_DNA)
DNA: CGGAGGGCGCGCGGGTCGGGGCGGCGGCGGCGGCGGCGGTGGCGGCGGCGGCGGGGGCGGCGGG
In turn, B4 registered a Kd in [19] of 0.3 nM. For the molecule AGGGGACACCGGGGGGGCGCCGGGGG (structured_DNA) [11888T], the Kd in data set [17] (G4 motif, CD not determined) was 0.2 nM. For AGGGCGCGGGGTGGGGAGGG (structured_DNA) [10951T], in [20], the Kd stood at 0.2 nM.

Regarding AGGGGGTGGGCGCCGGGAGGGGGG (structured_DNA) [8904T], in data set [21], the Kd turned out to be 0.4 nM. For the molecule AGGGACCGGTGGGGCCGGGGCGGGG (structured_DNA) [3468T], the Kd in data set [22] is 2.4 nM.

With GGGGTGGGGGGGAGGG (structured_DNA) [13079NT], the Kd in data set [23] was found to be 2.6 nM. On to GGAGGAGGAGGA (structured_DNA) [GGA4], for which the Kd in data set [9] (G4 parallel) is over 30 nM.

Take GGGGCGCGGCGGGGGGAGAAGGGTCGGGGCGGCAGGGG (structured_DNA) [11028NT]: the Kd in data set [16] (G4 mixed) worked out at 2.7 nM.

In [18], AGGGGCGGCGGGGAGGAGGAGGGGCGCGGGG (structured_DNA) [7370T] yielded a Kd of 1.1 nM. AGGGTTAGGGTTAGGGTTAGGG (structured_DNA) [hTel] gave a Kd in data set [9] (G4 antiparallel) of over 30 nM.
